{
  "source": "paper PMC13292882",
  "about": "(2025)",
  "key": {"[1]": {"target": "RPA32 winged-helix domain (RPA32-WH) (amino acids 202-270) (UniProt P15927 202-270)", "sequence (P15927 202-270)": "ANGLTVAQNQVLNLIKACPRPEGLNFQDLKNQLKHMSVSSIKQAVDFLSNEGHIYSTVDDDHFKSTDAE", "test": "FP"}, "[2]": {"target": "Proliferating Cell Nuclear Antigen (PCNA) (UniProt P12004 1-261)", "sequence (P12004 whole entry)": "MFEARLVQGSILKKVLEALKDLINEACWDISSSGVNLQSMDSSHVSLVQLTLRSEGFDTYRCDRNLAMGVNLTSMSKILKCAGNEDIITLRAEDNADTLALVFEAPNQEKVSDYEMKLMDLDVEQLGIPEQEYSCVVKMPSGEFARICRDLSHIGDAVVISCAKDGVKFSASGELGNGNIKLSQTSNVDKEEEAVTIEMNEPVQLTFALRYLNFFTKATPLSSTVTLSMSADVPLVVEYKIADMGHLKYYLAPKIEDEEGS", "test": "FP"}},
  "note": "No end group written: not given here.",
  "data": [
    {"binder": "LTEEQRKKIEENRQKALARRAEKLLA (also: fluorescein-labeled, position not given here)", "note": "[SMARCAL peptide]", "values": [
      {"measurement": "Kd", "setting": "[1]", "value": 13.5, "unit": "µM"}
    ]},
    {"binder": "SAVLQKKITDYFHPKK (also: fluorescein-labeled, position not given here)", "note": "[Pogo-Ligase peptide]", "values": [
      {"measurement": "Kd", "setting": "[2]", "value": 0.051, "unit": "µM"}
    ]}
  ]
}
